Test results published in patent US20260176319A1 (KALLYOPE, published 2026).
Starred links: 1 amine or outer side, 2 acyl side, 3 side chain; linkers in the order of their positions; H or OH if unused. Non-standard residues stand in square brackets, D forms with d. *: point of attachment. Trp(6-Me) = Cc1ccc2c(C[C@H](N)C(=O)O)c[nH]c2c1; Trp(7-Me) = Cc1cccc2c(C[C@H](N)C(=O)O)c[nH]c12; d(γGlu) = O=C(O)[C@@H](CCC(=O)[*:2])N[*:1]; C18 diacid = O=C(O)CCCCCCCCCCCCCCCCC(=O)*; Palmitoyl = CCCCCCCCCCCCCCCC(=O)*; 3Pal = N[C@@H](Cc1cccnc1)C(=O)O; Nle = CCCC[C@H](N)C(=O)O; AEEA = NCCOCCOCC(=O)O; Aib = CC(C)(N)C(=O)O; Ava = NCCCCC(=O)O; Sar = CNCC(=O)O

B1: Peptide 76 (peptide)
peptide: {C18 diacid}-[d(γGlu)][AEEA][AEEA]GNH[Trp(7-Me)]AV[dA]HL[Nle][Aib]-NH2
SMILES: CCCC[C@H](NC(=O)[C@H](CC(C)C)NC(=O)[C@H](Cc1c[nH]cn1)NC(=O)[C@@H](C)NC(=O)[C@@H](NC(=O)[C@H](C)NC(=O)[C@H](Cc1c[nH]c2c(C)cccc12)NC(=O)[C@H](Cc1c[nH]cn1)NC(=O)[C@H](CC(N)=O)NC(=O)CNC(=O)COCCOCCNC(=O)COCCOCCNC(=O)CC[C@@H](NC(=O)CCCCCCCCCCCCCCCCC(=O)O)C(=O)O)C(C)C)C(=O)NC(C)(C)C(N)=O
B2: Peptide 5 (peptide)
peptide: EXXGNHWAVGHLM
modifications: Octadecanedioyl-D-γGlu-OEG-OEG-Gly-Asn-His-Trp-Ala-Val-Gly-His-Leu-Met-NH2
B3: Peptide 77 (peptide)
peptide: {C18 diacid}-[d(γGlu)][AEEA][AEEA]GK(Ac)HWAV[dA]HL[Nle][Sar]-NH2
SMILES: CCCC[C@H](NC(=O)[C@H](CC(C)C)NC(=O)[C@H](Cc1c[nH]cn1)NC(=O)[C@@H](C)NC(=O)[C@@H](NC(=O)[C@H](C)NC(=O)[C@H](Cc1c[nH]c2ccccc12)NC(=O)[C@H](Cc1c[nH]cn1)NC(=O)[C@H](CCCCNC(C)=O)NC(=O)CNC(=O)COCCOCCNC(=O)COCCOCCNC(=O)CC[C@@H](NC(=O)CCCCCCCCCCCCCCCCC(=O)O)C(=O)O)C(C)C)C(=O)N(C)CC(N)=O
B4: Peptide 74 (peptide)
peptide: {C18 diacid}-[d(γGlu)][AEEA][AEEA][Aib]NHWAV[dA]HL[Nle]-NH2
SMILES: CCCC[C@H](NC(=O)[C@H](CC(C)C)NC(=O)[C@H](Cc1c[nH]cn1)NC(=O)[C@@H](C)NC(=O)[C@@H](NC(=O)[C@H](C)NC(=O)[C@H](Cc1c[nH]c2ccccc12)NC(=O)[C@H](Cc1c[nH]cn1)NC(=O)[C@H](CC(N)=O)NC(=O)C(C)(C)NC(=O)COCCOCCNC(=O)COCCOCCNC(=O)CC[C@@H](NC(=O)CCCCCCCCCCCCCCCCC(=O)O)C(=O)O)C(C)C)C(N)=O
B5: Peptide 78 (peptide)
peptide: {C18 diacid}-[d(γGlu)][AEEA][AEEA][AEEA][AEEA]GNH[Trp(7-Me)]AV[dA]HL-NH2
SMILES: Cc1cccc2c(C[C@H](NC(=O)[C@H](Cc3c[nH]cn3)NC(=O)[C@H](CC(N)=O)NC(=O)CNC(=O)COCCOCCNC(=O)COCCOCCNC(=O)COCCOCCNC(=O)COCCOCCNC(=O)CC[C@@H](NC(=O)CCCCCCCCCCCCCCCCC(=O)O)C(=O)O)C(=O)N[C@@H](C)C(=O)N[C@H](C(=O)N[C@H](C)C(=O)N[C@@H](Cc3c[nH]cn3)C(=O)N[C@@H](CC(C)C)C(N)=O)C(C)C)c[nH]c12
B6: Peptide 70 (peptide)
peptide: {C18 diacid}-[d(γGlu)][AEEA][AEEA]GEHW[Aib]V[dA]HL[Nle]-NH2
SMILES: CCCC[C@H](NC(=O)[C@H](CC(C)C)NC(=O)[C@H](Cc1c[nH]cn1)NC(=O)[C@@H](C)NC(=O)[C@@H](NC(=O)C(C)(C)NC(=O)[C@H](Cc1c[nH]c2ccccc12)NC(=O)[C@H](Cc1c[nH]cn1)NC(=O)[C@H](CCC(=O)O)NC(=O)CNC(=O)COCCOCCNC(=O)COCCOCCNC(=O)CC[C@@H](NC(=O)CCCCCCCCCCCCCCCCC(=O)O)C(=O)O)C(C)C)C(N)=O
B7: Peptide 73 (peptide)
peptide: {C18 diacid}-[d(γGlu)][AEEA][AEEA]GN[3Pal][Trp(7-Me)]AV[dA]HL[Nle][Sar]-NH2
SMILES: CCCC[C@H](NC(=O)[C@H](CC(C)C)NC(=O)[C@H](Cc1c[nH]cn1)NC(=O)[C@@H](C)NC(=O)[C@@H](NC(=O)[C@H](C)NC(=O)[C@H](Cc1c[nH]c2c(C)cccc12)NC(=O)[C@H](Cc1cccnc1)NC(=O)[C@H](CC(N)=O)NC(=O)CNC(=O)COCCOCCNC(=O)COCCOCCNC(=O)CC[C@@H](NC(=O)CCCCCCCCCCCCCCCCC(=O)O)C(=O)O)C(C)C)C(=O)N(C)CC(N)=O
B8: Peptide 79 (peptide)
peptide: {C18 diacid}-[d(γGlu)][AEEA][AEEA]GNH[Trp(6-Me)]AV[dA]HL[Nle]-NH2
SMILES: CCCC[C@H](NC(=O)[C@H](CC(C)C)NC(=O)[C@H](Cc1c[nH]cn1)NC(=O)[C@@H](C)NC(=O)[C@@H](NC(=O)[C@H](C)NC(=O)[C@H](Cc1c[nH]c2cc(C)ccc12)NC(=O)[C@H](Cc1c[nH]cn1)NC(=O)[C@H](CC(N)=O)NC(=O)CNC(=O)COCCOCCNC(=O)COCCOCCNC(=O)CC[C@@H](NC(=O)CCCCCCCCCCCCCCCCC(=O)O)C(=O)O)C(C)C)C(N)=O
B9: Peptide 72 (peptide)
peptide: {C18 diacid}-[d(γGlu)][AEEA][AEEA]GN[3Pal]WAV[dA]HL[Nle][Sar]-NH2
SMILES: CCCC[C@H](NC(=O)[C@H](CC(C)C)NC(=O)[C@H](Cc1c[nH]cn1)NC(=O)[C@@H](C)NC(=O)[C@@H](NC(=O)[C@H](C)NC(=O)[C@H](Cc1c[nH]c2ccccc12)NC(=O)[C@H](Cc1cccnc1)NC(=O)[C@H](CC(N)=O)NC(=O)CNC(=O)COCCOCCNC(=O)COCCOCCNC(=O)CC[C@@H](NC(=O)CCCCCCCCCCCCCCCCC(=O)O)C(=O)O)C(C)C)C(=O)N(C)CC(N)=O
B10: Peptide 80 (peptide)
peptide: {C18 diacid}-[d(γGlu)][Ava]GNHWAV[dA]HL[Nle]-NH2
SMILES: CCCC[C@H](NC(=O)[C@H](CC(C)C)NC(=O)[C@H](Cc1c[nH]cn1)NC(=O)[C@@H](C)NC(=O)[C@@H](NC(=O)[C@H](C)NC(=O)[C@H](Cc1c[nH]c2ccccc12)NC(=O)[C@H](Cc1c[nH]cn1)NC(=O)[C@H](CC(N)=O)NC(=O)CNC(=O)CCCCNC(=O)CC[C@@H](NC(=O)CCCCCCCCCCCCCCCCC(=O)O)C(=O)O)C(C)C)C(N)=O
B11: Peptide 75 (peptide)
peptide: Palmitoyl-[d(γGlu)][AEEA][AEEA]GNHWAV[dA]HL[Nle][Aib]-NH2
SMILES: CCCCCCCCCCCCCCCC(=O)N[C@H](CCC(=O)NCCOCCOCC(=O)NCCOCCOCC(=O)NCC(=O)N[C@@H](CC(N)=O)C(=O)N[C@@H](Cc1c[nH]cn1)C(=O)N[C@@H](Cc1c[nH]c2ccccc12)C(=O)N[C@@H](C)C(=O)N[C@H](C(=O)N[C@H](C)C(=O)N[C@@H](Cc1c[nH]cn1)C(=O)N[C@@H](CC(C)C)C(=O)N[C@@H](CCCC)C(=O)NC(C)(C)C(N)=O)C(C)C)C(=O)O
B12: Peptide 71 (peptide)
peptide: {C18 diacid}-[d(γGlu)][AEEA][AEEA]K(Ac)HWAV[dA]HL[Nle]-NH2
SMILES: CCCC[C@H](NC(=O)[C@H](CC(C)C)NC(=O)[C@H](Cc1c[nH]cn1)NC(=O)[C@@H](C)NC(=O)[C@@H](NC(=O)[C@H](C)NC(=O)[C@H](Cc1c[nH]c2ccccc12)NC(=O)[C@H](Cc1c[nH]cn1)NC(=O)[C@H](CCCCNC(C)=O)NC(=O)COCCOCCNC(=O)COCCOCCNC(=O)CC[C@@H](NC(=O)CCCCCCCCCCCCCCCCC(=O)O)C(=O)O)C(C)C)C(N)=O
B13: Peptide 66 (peptide)
peptide: {C18 diacid}-[d(γGlu)][AEEA][AEEA]GNHWAV[dA][3Pal]L[Nle]-NH2
SMILES: CCCC[C@H](NC(=O)[C@H](CC(C)C)NC(=O)[C@H](Cc1cccnc1)NC(=O)[C@@H](C)NC(=O)[C@@H](NC(=O)[C@H](C)NC(=O)[C@H](Cc1c[nH]c2ccccc12)NC(=O)[C@H](Cc1c[nH]cn1)NC(=O)[C@H](CC(N)=O)NC(=O)CNC(=O)COCCOCCNC(=O)COCCOCCNC(=O)CC[C@@H](NC(=O)CCCCCCCCCCCCCCCCC(=O)O)C(=O)O)C(C)C)C(N)=O
B14: Peptide 4 (peptide)
peptide: {C18 diacid}-[d(γGlu)][AEEA][AEEA]GNHWAV[Aib]HL[Nle]-NH2
SMILES: CCCC[C@H](NC(=O)[C@H](CC(C)C)NC(=O)[C@H](Cc1c[nH]cn1)NC(=O)C(C)(C)NC(=O)[C@@H](NC(=O)[C@H](C)NC(=O)[C@H](Cc1c[nH]c2ccccc12)NC(=O)[C@H](Cc1c[nH]cn1)NC(=O)[C@H](CC(N)=O)NC(=O)CNC(=O)COCCOCCNC(=O)COCCOCCNC(=O)CC[C@@H](NC(=O)CCCCCCCCCCCCCCCCC(=O)O)C(=O)O)C(C)C)C(N)=O
B15: Peptide 69 (peptide)
peptide: {C18 diacid}-[d(γGlu)][AEEA][AEEA]GNHWAV[dA]HLR-NH2
SMILES: CC(C)C[C@H](NC(=O)[C@H](Cc1c[nH]cn1)NC(=O)[C@@H](C)NC(=O)[C@@H](NC(=O)[C@H](C)NC(=O)[C@H](Cc1c[nH]c2ccccc12)NC(=O)[C@H](Cc1c[nH]cn1)NC(=O)[C@H](CC(N)=O)NC(=O)CNC(=O)COCCOCCNC(=O)COCCOCCNC(=O)CC[C@@H](NC(=O)CCCCCCCCCCCCCCCCC(=O)O)C(=O)O)C(C)C)C(=O)N[C@@H](CCCNC(=N)N)C(N)=O
B16: Peptide 67 (peptide)
peptide: {C18 diacid}-[d(γGlu)][AEEA][AEEA]GEHWAV[dA][3Pal]L[Nle]-NH2
SMILES: CCCC[C@H](NC(=O)[C@H](CC(C)C)NC(=O)[C@H](Cc1cccnc1)NC(=O)[C@@H](C)NC(=O)[C@@H](NC(=O)[C@H](C)NC(=O)[C@H](Cc1c[nH]c2ccccc12)NC(=O)[C@H](Cc1c[nH]cn1)NC(=O)[C@H](CCC(=O)O)NC(=O)CNC(=O)COCCOCCNC(=O)COCCOCCNC(=O)CC[C@@H](NC(=O)CCCCCCCCCCCCCCCCC(=O)O)C(=O)O)C(C)C)C(N)=O
B17: Peptide 68 (peptide)
peptide: {C18 diacid}-[d(γGlu)][AEEA][AEEA]GNHHAV[dA]HL[Nle]-NH2
SMILES: CCCC[C@H](NC(=O)[C@H](CC(C)C)NC(=O)[C@H](Cc1c[nH]cn1)NC(=O)[C@@H](C)NC(=O)[C@@H](NC(=O)[C@H](C)NC(=O)[C@H](Cc1c[nH]cn1)NC(=O)[C@H](Cc1c[nH]cn1)NC(=O)[C@H](CC(N)=O)NC(=O)CNC(=O)COCCOCCNC(=O)COCCOCCNC(=O)CC[C@@H](NC(=O)CCCCCCCCCCCCCCCCC(=O)O)C(=O)O)C(C)C)C(N)=O

Each binder was assayed against human GRP receptor (human, UniProt P30550 1-384) (assay: cell-based or functional assay).
Sequence of human GRP receptor (P30550 whole entry): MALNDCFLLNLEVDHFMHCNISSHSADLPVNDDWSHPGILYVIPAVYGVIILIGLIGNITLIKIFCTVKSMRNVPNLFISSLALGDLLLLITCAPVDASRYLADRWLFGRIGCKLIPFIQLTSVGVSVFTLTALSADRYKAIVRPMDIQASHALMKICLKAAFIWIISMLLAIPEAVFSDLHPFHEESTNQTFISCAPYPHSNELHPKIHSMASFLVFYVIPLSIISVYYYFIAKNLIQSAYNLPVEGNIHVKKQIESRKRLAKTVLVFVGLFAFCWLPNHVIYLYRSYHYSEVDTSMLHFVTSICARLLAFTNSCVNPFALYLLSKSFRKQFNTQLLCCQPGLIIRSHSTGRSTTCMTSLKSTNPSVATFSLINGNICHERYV

Going from B1 to B2, the “hIP1 GRPR EC50” value falls from 358 nM to 7.5 nM (48-fold).

Going from B3 to B4, the “hIP1 GRPR EC50” value falls from 184 nM to 25.5 nM (7.2-fold).

Compared with B5, B6 is 69-fold higher in “hIP1 GRPR EC50” value: 14 nM for the first, 972 nM for the second.

Compared with B7, B8 is 2.2-fold lower in “hIP1 GRPR EC50” value: 1190 nM for the first, 529 nM for the second.

Going from B9 to B10, the “hIP1 GRPR EC50” value falls from 1050 nM to 5.11 nM (210-fold).

Compared with B11, B12 is 2.9-fold lower in “hIP1 GRPR EC50” value: 18.2 nM for the first, 6.2 nM for the second.

Going from B13 to B14, the “hIP1 GRPR EC50” value rises from 308 nM to 1420 nM (4.6-fold).

Compared with B15, B16 is lower in “hIP1 GRPR EC50” value: > 10000 nM for the first, 1050 nM for the second.

B17 was tested, and the “hIP1 GRPR EC50” value was > 10000 nM.
